In the nanobody polyreactivity screen of Harvey et al. (2022):

Assay: yeast display, Sf9 membrane polyspecificity reagent, FACS + sequencing; frameworks hold sequencing errors
Summary of the method: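 Galactose induction of a Saccharomyces cerevisiae BJ5465 synthetic nanobody display library ran 36–48 hours. The cells were then stained for 1 hour at 4 °C with 10% biotinylated, detergent-solubilized Sf9 membrane reagent, pulled down on streptavidin microbeads and FACS-sorted into low and high (top ~1%) gates on expression and reagent-binding fluorescence. Labels for polyreactivity follow the gate of origin.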

| Sequence | polyreactivity (PSR sort gate) |
| --- | --- |
| QVQLVESGGALVQAGGSLRLSCAASGSTFYTYVMGWYRQAPGKQREVVADITWRGGSTYYADSENGRFTISRDNAKNTVYLLMNSLKPEDTPVYYCAALSGLLWYGRMYYWGQGTQVTVSS | high polyreactivity |
| QVQLVESGGGLVQAGGSLRLSCAASGSTFVHNAMGWYRQAPGKERELVAAISESGGGTYYADSVKGRFKISRDNAKNTVYLQMNSQKPEDTAVYYCAAPPAGENWRDGGGYFGQGTQVTVSS | low polyreactivity |
| PVQLVESGGGLVQAGGSLRLSCAASGSIFVTYAMGWYRQAPGKERELVATITYSGGSTSYADSVKGRFTISRDNAKNTVYLQMNSLKPEDTAVYYCAADLDSDFDYWGQGTQVTVSS | low polyreactivity |
| QVQLVESGGGLVQAGGSLRLSCAASGFTFDTYAMGWSRQAPGKERELVAAISSSGGSTYYADSVKGRFTISRDNAKNTVYLQMNSLKPEDTAVYYCNAYYRYSRGYDYWGQGTQVTVSS | high polyreactivity |
| QVQLVESGGGLVQAGGSLRLSCAASGFTFTVYAMGWYRQAPGKERELVAAISGIGGSTYYADSVKGRFTISRDNAKNTVYLQMNSLKPEDTAVYYCNAVSGDSGDYWGQGTQVTVSS | low polyreactivity |
| QVQLVESGGGLVQAGGSLRLSCAASGRTFAWYAMGRYRQAHGKERELVAVIRRGSGDTYYADSVKARFTISRDNAKNTVYLQMNSLKTEDTAVYYCAAEGRFSFYGGGRTKYSRYDYWGQGTQVTVSS | high polyreactivity |
| QVQLVESGGGLVQAGGSLRLSCAASGRTFYINAMGWYRQAPGKERELVATISRSGGDTYYADSVKGRFTISRDNAKNTVYIEMTSLKPEDTAVYFCNARQYYYRSGAYASRYLYNYWGQGTQVTVSS | high polyreactivity |
| QVQLVESGGGLVQAGGSLRLSCAASGSTFQIYAMGWYRQAPGNERELVAAITSSSSTNYADSVKGRFTISRDNAKNTVYLQMNSLKPEDTAVYYCAADVSWRSNWYDYWGQGTQVTVSS | low polyreactivity |
| QVQLVESGACLVQAGGSLRLSCAASGFIFPRNAMGWYRQAPGKERELVAAITKSGGSTYYADSVKGRFTISRDNAKNTVYLQMNSLKPEDTAVYYCAATDSATELYYRMDYWGQGTQVTVSS | high polyreactivity |
| QVQLVESGGGLVQAGGSLRLSCAASGSTFFLYGRGWYRQARGKERELVATISKRGGSTHYADSVKGRFTISRDNAKNTVYVQKHSLKPEDTAVYYCAAGRPGVSFKEWSYKPSSSYDYWGQGTQVTVSS | low polyreactivity |
| QVQLVESVGGVVQAGGSLGLSCAASGRPFGRNVMGWYRQAPGKERELVAAISRSGGSTYYADSVKGRFTISRDNAKNTVYFQMNSLKPEDTAVYYCAAYSVGDYYWGQGTQVTVSS | high polyreactivity |
| QVQHVESGGGLVQAGGSLRLSCAASGSIFNYYAMGWYRQAPGKERELVAAISKTGGSTYYADSVKGRFTISRDNAKNTVYLQMNSLKPEDTAVYYCNAVYASVSPTPYGYWGQGTQVTVSS | high polyreactivity |
| QVQLVESGGGLVQAGGSLRLSCAASGITFFDYAMGWYRQAPGKERELVAAIDLSDGRTYYADSVKGRFTISRDNAKNTVYLQMNSLKPEDTAVYYCARQHEDYGYYWYYWYDYDYWGQGTQVTVSS | low polyreactivity |
| QVQVVESGGGLVQPGGSLRLSCAASGFIFFRYDMGWYRQAPGKERELVAAITDDGSTYADSVKGRFTISRDNAKNNVYLQMNSLKPEDTAVYYCNVQSKSSYWWYGYDYWGQGTQVTVSS | low polyreactivity |
| QVQLVESGGRLVQAGGSLRLSCAASGSTFGWYAMAWYRPAPGKERELVAAIRSNGGSTYYADSVKGRFTISRDNAKNTVYLQMNSLKPEDTAVYYCAARGSPSKHHWYDYWGQGTQVTVSS | low polyreactivity |
| QVQLVESGGGLVQAGGSLRLSCAASGSIFDIYGMGWYRQAPGKERELVASISRGAGSTNYADSVKGRFTISRDNAKNTVYLQMNSLKPEDTAVYYCAAEVYVPDYFQHKFDVEYEYWGQGTQVTVSS | low polyreactivity |
| QVQLVESGGGLVQAGGSLRLSCAASGRIFVYNAMGWYRQAPGKEWELVATITSGGSTYYADSVKGRFTISRDNAMNTVYLQMNSLKPEDTAVYYCAARRWYVHYFAYGYWGQGTQVTVSS | low polyreactivity |
| QVQLVESGGGLVQAGGSLRLSCAASGSTFAYYTMGWYRQAPGKERELVAAISKSGGSTTYADSVKGRFTISRDNAKNTVYLQMNSLKPEETAVYYCAAARKYYGYNYWGQGTQVTVSS | high polyreactivity |
| QVQLVESVLGLVQAGGSLRLICDASGSIFGYNVIGWYRQAPGKERELVAAITGRGDSTYYADSVKGRFTISRDNAKNTVYLQMNSLKPEDTAVYYCAAYPNQSEYYYWGQGTQVTVSS | low polyreactivity |
| QVQLVESGGGLVQAGGSLRLSCAASVSTFQVYGMGWYREAPGKERELVAAISYSGGRTYYADSVKGRFTISRDNAKNTVYLQMNILKPEDTAVYYCNAVLAHDPRLDYWGQGTQVTVSS | high polyreactivity |
| QVQLVESGGGLVQAGGSLRLSCAASGSISPVYAMGWYRQAPGKERELVAAYADSVKGRFTISRDNAKNTVYLQMNSLIPEDTAVYYCNVVETSQELGWQAFDYWGQGTQVTVSS | low polyreactivity |
| QVQLVESGGGLVQAGGSLRLSCAASGITFRYYAMGWYRQAPGKERELVAAISGSGGSTYYADSVKGRFTISRDNAKNTVYLQMNSLKPEDTAVNYCNVDKGYSRSLRLGYDYWGQGTEVTVSS | high polyreactivity |

| Sequence | polyreactivity (PSR sort gate) |
| --- | --- |
| QVQLVESGVGLVQAGGSLRLSCASSGFTFYYYAMGWYRQAPGKERELVAAIDTSDGSTYYADSVKGRFTISRDNAKNTVYLQMNSLKPEDTAVYYCAAEVDWVPFLLDYWGQGTQVTVSS | low polyreactivity |
| QVQLVESGAGLVQAGGSLRLTCAASGIIFPFYAMGWYRQAPGKERELVAGITSGGDTYYADSVKGRFTISRDNAKNTVYLQMNSLKPEDTAVSYCAAVYRRQYGYWGQGTQVTVSS | high polyreactivity |
| QVQLVESGGGLVQAGGSLRLSCAASGRTFRYNTMGWYRQAPGKERELVAAITKGAASTYYADSVKGRFTISRDNAKNTVYLQMNSLKPEDTAVYYCNAVYSRIVTQKYWGQGTQVTVSS | high polyreactivity |
| QVQLVESGGGLVQAGGSLRLSCAASGFIFRYNTMGWYRQAPGIVRELVAAISVSGARTYYADSVKGRFTISRDNAKKTVYLQMNSLKPEDTAVYYCNRRYPFYSRYNNDYWGLGTQVTVSS | high polyreactivity |
| QVQLVESGGGFVQAGGSLRLSCAASGRIFPWNTMGWYRQATGNERELVAGITSGGSTNYADSVKGRFTISRDNAKNTVYLQMNSLKPEDTAVYNCAARGYYWYISGVYEYEYWGQGTQVTVSS | low polyreactivity |
| QVQLVESGGGLVQAGGRLRLSCAASGFIFYYNTMGWYRQAPGKERELVAAISSGGRTYYADSVKGRFTISRDNAKNTVYLQMNSLKPEDTAVYYCNVVTYVKYGYWGQGTQVTVSS | high polyreactivity |
| QVQLVESCGGLFQAGGSLRLSCAPSGRTSWVYAMGWYRQAPAKERELVASIRKRTVVYADSVKGRFTISRENAKNTVYLQMNSLKPEETAVYYCNTDYSSTSQWRAANYWGQGTQVTVSS | high polyreactivity |
| QVQLVESGRALVQAGGSLRLSCAASGFTFWTNTMGWYIQAPGKERELVAAITSTGGTTYYADSVKGRFTISRDNAKNTVYLQMNSLKAEDTAVYYCAAELGGYVASYYYPGYDYWGQGTQVTVSS | low polyreactivity |
| QVQLVESGAVLVQAGGSIRLSCAASGSSFPYYAMGWYRQAPVKERELVATISQDGGRTYADSVKGRFTISRDNAKNTVYLQMNSLKPEDTAVDYCAADYSVNYDFGYWGQGTQVTVSS | low polyreactivity |
| QVQLVESGGGLVQAGGSLRLSCAASGSTFYWYAMGGYRQAPGKERELVAAISGSGGRTYYADSVKGRFTISRDNAKNTVYLQMYSLKPEDTAGYYCAADTKFYNYYYWGQGTQVTVSS | high polyreactivity |
| QVQLVESGGGLVQAGGSLRLSCAASGFTFSYYAMGWYRQAPGKERELVAGITTGGGTNYADSVKGRFTISRDNAKNTVYLQMNSLKPEDTAVFYCNADYWYKYDYWGQGTQVTVSS | low polyreactivity |
| QVQLVESGGGIVQAGGSLRLSCAASGNIFPYYDMGWYRPAPGKERELVAAITSSASGTYYADSVKGRFTISRDNAKNTVYLQMNSLKPEDTAVYYCAAGVFFFTFDYWGQGTQVTVSS | low polyreactivity |
| QVQLVESGGGLVQAGGSLRLSCAASGGIFPAYAMGWYRQAPGKERELVASISANGGRTYYADSVKGRFTISRDNAKNTVYLQMNSLKPEDTAVYYCNASSRSGSWRFYYWGQGTQVTVSS | high polyreactivity |
| KVQHVESGGGLVQAGGSLRLSCAASGLTFYTNAMGWYRQPPGKESEFVADITTSGGDTYYADSVKGRFTISRDNAKNTVYLQMNSLKPEDTAVYYCGEFWSYWGYGQYDYWGQGTQVTVSS | low polyreactivity |
| QVQLVESGGGLVQAGGSLRLSCAASGSIFGAYAMGWYRQAPGKESELVAVIRWGGGSTYADSVKGRFTISRDNAKNTVYLQMNSLKPEDTAVYYCNRDKSWADLYSHAYDYWGQGTQVTVSS | low polyreactivity |
| QVQLVESGGGLVQAGGSLSLICAASGSTFTENAMGWYRQAPGKERELVAVITSSDGTTYYADSVKGRFTISRDNAKNTVYLQMISLKPEDTAVSYCAADPYYFWWRYDFWGQGTQVTVSS | low polyreactivity |
| QVQLVESGGGLVQAGGSLRLSCAASGSIFHYYAMGWYRQATGKERELVAAISTSGGSTYYADSVKGRFTISRDNAKNTVYLQMNSLKPEDTAVYYCNAVYYYFPVGDDEYWGQGTQVTVSS | high polyreactivity |
| QVQLVESGGGLVQAGGSLRLSSAASGRIFQRYAMGCYRQAPGKERELVAAISGSGGRTYYADSVKGRFTISRDNAKNTVYLQLNSLKPDDSAVYYCAAYPSYYADSGLRYDYWGQGTQVTVSS | high polyreactivity |
| QVQLVESGGGLVQAGGSLRLSCAASGRTFYDYDMGWYRQAPGKERELFAAISGGDSTYYADSVKGRFTISRDNAKNTFYLQLKSLKPEDTAVYDCAVTPRGLPYGAYLLYYWGQGTQVTVSS | low polyreactivity |
| QVQLVESGGGLVQAGGSLRLSCAASGRILKYYDMGWYRQAPGKERELVAAISVSGTSTYYADSVKGRFTISRDNAKNTVYLQMNSLKPEDTAVYYCATATGRYSFDYWGQGTQVTVSS | low polyreactivity |
| QVQLVESGGGLVQAGGSLRLSCAASGITFPSYVMGWYRQAPGKERELVAAISWRGGSTYYADSVKGRFTISRDNAKNTVYLQMNSLKPEDTAVYYCAAGSARDDDYWGQGTQVTVSS | high polyreactivity |
